The target in test [1] is T1, Murine B7-H4-Fc (Mouse B7H4 ECD, Fc_6His) (mouse, UniProt Q7TSP5 25-257).
T1 construct: extracellular domain; also called mouse B7-H4-Fc; FcHis6 tagged murine B7-H4
T1 sequence (Q7TSP5 whole entry, looked up): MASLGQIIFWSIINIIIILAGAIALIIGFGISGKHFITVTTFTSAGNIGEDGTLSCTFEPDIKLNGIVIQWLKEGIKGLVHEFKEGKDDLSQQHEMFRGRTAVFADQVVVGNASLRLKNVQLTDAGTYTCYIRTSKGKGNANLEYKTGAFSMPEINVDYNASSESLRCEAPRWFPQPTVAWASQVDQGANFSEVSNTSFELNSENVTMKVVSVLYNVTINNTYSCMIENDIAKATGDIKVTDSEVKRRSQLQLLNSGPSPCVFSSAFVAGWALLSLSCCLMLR
As to the kind of experiment: HTRF binding, human IgG1-TM. A general note: In TR-FRET formats the signal depends on donor and acceptor labels being close together.

The target in test [2] is T2, Human B7H4 ECD (SV), splice variant, 10His_FLAG (human).
T2 construct: also called B7-H4-SV
The experiment in a line: Octet BLI; end of the range tied to the member by Table 9. On the technique in general: In BLI a coated tip is dipped into the sample, and binding shifts an interference pattern.

Test [3] deals with T3, Human B7-H4 ECD-Flag-His10 (monomeric) (human, UniProt Q7Z7D3 25-259).
T3 construct: Minimally biotinylated for KinExA; also called hB7H4-ECD-Flag-His10; B7-H4-FLAG
T3 sequence: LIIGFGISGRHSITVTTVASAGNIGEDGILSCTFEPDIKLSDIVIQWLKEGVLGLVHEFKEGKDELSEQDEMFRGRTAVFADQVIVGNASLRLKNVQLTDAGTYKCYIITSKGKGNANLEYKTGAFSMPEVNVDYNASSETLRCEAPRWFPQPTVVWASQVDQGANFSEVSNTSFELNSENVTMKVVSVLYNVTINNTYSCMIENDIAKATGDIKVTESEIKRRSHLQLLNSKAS
As to the kind of experiment: Octet; summary table, rounded from Table 9 (hIgG1-TM).

Test [4] deals with T2, Human B7H4 ECD (SV), splice variant, …. As to the kind of experiment: Octet; summary table, repeats Table 9 (hIgG1-TM).
In test [5] the target is T4, Murine B7-H4 ECD-Flag-His10 (monomeric) (mouse, UniProt Q7TSP5 25-257).
T4 construct: extracellular domain; also called FlagHis10 murine B7-H4
T4 sequence (looked up): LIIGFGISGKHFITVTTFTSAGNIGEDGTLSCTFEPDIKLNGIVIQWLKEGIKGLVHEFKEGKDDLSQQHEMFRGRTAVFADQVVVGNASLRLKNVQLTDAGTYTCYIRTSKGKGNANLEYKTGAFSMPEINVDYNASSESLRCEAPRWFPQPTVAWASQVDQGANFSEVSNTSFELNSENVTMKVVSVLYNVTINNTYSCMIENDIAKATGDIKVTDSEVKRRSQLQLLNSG
The experiment in a line: Octet; summary table, repeats Table 9 (hIgG1-TM).

The target of test [6] is T2, Human B7H4 ECD (SV), splice variant, …. As to the kind of experiment: Octet BLI, hIgG1-TM on Protein G (n = 4-7).
Test [7] addresses T3, Human B7-H4 ECD-Flag-His10 (monomeric). The experiment in a line: Octet BLI, hIgG1-TM on Protein G (n = 4-7).
Test [8] deals with T4, Murine B7-H4 ECD-Flag-His10 (monomeric). The experiment in a line: Octet BLI, hIgG1-TM on Protein G (n = 4-7).
Test [9] addresses T3, Human B7-H4 ECD-Flag-His10 (monomeric). As to the kind of experiment: Octet BLI; end of the range tied to the member by Table 9.
The target of test [10] is T4, Murine B7-H4 ECD-Flag-His10 (monomeric). The description is as above.
Test [11] concerns the target T3, Human B7-H4 ECD-Flag-His10 (monomeric). As to the kind of experiment: ELISA, absorbance 450 nm; x axis printed as antigen concentration (µg/ml).
For test [12], the target named is T5, Human B7-H4-Fc (Human B7H4 ECD, Fc_6His) (human).
T5 construct: also called FcHis6 tagged human B7-H4
T5 sequence (Q7Z7D3 whole entry, looked up): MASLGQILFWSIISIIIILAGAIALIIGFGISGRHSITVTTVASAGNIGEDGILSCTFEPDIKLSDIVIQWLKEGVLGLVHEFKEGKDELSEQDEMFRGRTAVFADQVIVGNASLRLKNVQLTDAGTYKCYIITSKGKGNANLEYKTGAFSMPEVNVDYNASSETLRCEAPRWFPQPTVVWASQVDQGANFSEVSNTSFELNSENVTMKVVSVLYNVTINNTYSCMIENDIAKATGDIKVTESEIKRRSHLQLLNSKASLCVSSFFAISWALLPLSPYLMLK
The description is as above.

The target of test [13] is T3, Human B7-H4 ECD-Flag-His10 (monomeric). The test is described as above. The source holds these as a separate data set.

Like-named read-outs stand apart in the source and are kept apart here.

B1: ZY0EOB-F05 human IgG1-TM (antibody, V domains shown)
VH: QVQLQESGPGLVKPSQTLSLTCTVSDGSISSGGYYWSWIRQHPGKGLEWIGNIYYSGSTYYNPSLKSRVTISVDTSKNQFSLKLNSVTAADTAVYYCATEKALATVTPSGYENYYTVDVWGQGTTVTVSS
VL: DIQLTQSPSFLSASVGDRVTITCWASQGISSYLAWYQQKPGKAPKLLIYAASTLQSGVPSRFSGSGSGTEFTLTISSLQPEDFATYYCQHLNSYPLTFGGGTKVEIK
A word on the EC50: it is the concentration giving half of the maximal effect. A word on the Kd: it is the concentration at which binding is half-saturated. High values mean a looser complex, low ones a tighter complex. One may read the koff as a measure of how fast the partners let go of each other. The low end stands for a long-lived complex, the high end for a short-lived complex. A word on the kon: it is the second-order rate constant of association. A higher kon goes with fast association. In turn, B1 returned an EC50 in test [1] of 0.00019 µM. Besides, the Max in test [1] came out at 1340. For the same molecule, the Kd in test [2] was 0.2 to 1.6 µM; in [3], 0.013 µM; in test [4], 0.174 µM; in [5], 0.025 µM; in test [6], 0.174 µM; in test [7], 0.0134 µM. In addition, the Kd in test [8] turned out to be 0.025 µM. The koff was 0.000584 s⁻¹ in [6], 0.000355 s⁻¹ in test [7] and 0.000476 s⁻¹ in test [8]. For the same molecule, the kon in [6] came to 3350 M⁻¹ s⁻¹; in test [7], 26500 M⁻¹ s⁻¹; in test [8], 18700 M⁻¹ s⁻¹.

B2: ZY0EP0-C07 human IgG1-TM (antibody, V domains shown)
VH: QVQLVESGGVLVKPGGSLRLSCAASGFTLSDYYMSWIRQAPGMGLEWVSYISSSGSTIYYTDSVKGRFTISRDSAKNSLYLQMNSLRAEDTAVYYCARDGVGFDYWGQGTLVTVSS
VL: EIVLTQSPGTLSLFPGERATLSCRASQSVSSSYLAWYQQKPGQSPRLLIYAASSRATGIPDRFSGSGSGTDFTLTISRLEPEDFAVYYCQQYGSSPLYTFGQGTKLEIK
notes: also called ZY0EPO-C07
B2 registered a concentration giving a half-maximal response (EC50) in [1] of 0.0002 µM. In addition, the Max in [1] is 1250. Also, the Kd is 0.01 to 0.025 µM in test [9]; 0.01 to 0.6 µM in test [10]; 0.009 µM in test [3]; 0.011 µM in test [5]; 0.0094 µM in test [7]; 0.011 µM in [8]. Further, the values for the koff in test [7] and in [8] were 0.000397 s⁻¹ and 0.000524 s⁻¹, respectively. Besides, the kon was 41600 M⁻¹ s⁻¹ in [7] and 43000 M⁻¹ s⁻¹ in [8].

B3: ZY0EQD-E02 human IgG1-TM (antibody, V domains shown)
VH: QVQLQQWGAGLLKPSETLSLTCAVYGGSFSGYYWNWIRQPPGKGLEWIGEINHSGSTSYNPSLKSRVTISVDTSKNQFSLKLSSVTAADTAVYYCARVLYNWNVDSWGQGTLVTVSS
VL: DIQMTQSPSSLSASVGDRVTITCRASQDIRNDVGWYQQKPGKAPKRLIYAASRLQSGVPSRFSGSGSGTEFTLTISSLQPEDFATYYCLQHNSYPRTFGQGTKVEIK
For orientation: EC50 (read off the curve) means the concentration that produces a half-maximal response. Higher therefore signals a need for much substance. For B3, the EC50 in test [1] was 0.00144 µM. The same molecule showed a Max in test [1] of 224. Also, the Kd is 0.01 to 0.6 µM in test [10]; 0.014 µM in test [3]; 0.801 µM in test [4]; 0.621 µM in test [5]; 0.801 µM in test [6]; 0.0144 µM in test [7]. Also, binding in test [8] was put at a Kd of 0.621 µM. The koff in test [6] was determined as 0.00269 s⁻¹; in [7], 0.00278 s⁻¹; in test [8] it was 0.126 s⁻¹. Besides, the kon worked out at 3360 M⁻¹ s⁻¹ in test [6], 193000 M⁻¹ s⁻¹ in test [7] and 203000 M⁻¹ s⁻¹ in test [8]. For the same molecule, the “EC50 (read off the curve)” value in test [11] was approximately 0.08 mg/L; in test [12], approximately 0.09 mg/L.

B4: ZY0EPQ-E02 human IgG1-TM (antibody, V domains shown)
VH: QVQLQQWGAGLLKPSETLSLTCAVYGGSFSGYYWNWIRQPPGKGLEWIGEINHSGSTNYNPSLKSRVTILVDTSKNQFSLKLSSVTAADTAVYYCARNLYNWNLDSWGQGTLVTVSS
VL: DIQMTQSPSSLSASVGDRVTITCRASQGIRNDLGWYQQKPGRAPKRLIYVASSLQSGVPSRFSGSGSGTEFTLTISSLQPEDFATYYCLQHNSYPRTFGQGTKVEIK
With B4, in test [1], the EC50 came to 0.00176 µM. In test [1], this molecule registered a Max of 256. For the same molecule, the Kd in test [2] is 0.2 to 1.6 µM; in [9], 0.01 to 0.025 µM; in test [3], 0.026 µM; in [4], 1.66 µM; in test [5], 0.396 µM; in test [6] it was 1.66 µM. Further, the equilibrium dissociation constant (Kd) in [7] is 0.0257 µM; in test [8], 0.396 µM. For the same molecule, the “EC50 (read off the curve)” value in test [13] was approximately 0.3 mg/L. For the same molecule, the results for the koff in test [6], in [7] and in test [8] were 0.00229 s⁻¹, 0.00182 s⁻¹ and 0.0304 s⁻¹, respectively. Also, the kon is 1380 M⁻¹ s⁻¹ in test [6], 70900 M⁻¹ s⁻¹ in test [7] and 76700 M⁻¹ s⁻¹ in test [8].
